The target of assay [1] is endogenous PTEN-L (mouse (endogenous in primary cortical neurons)). In words: proximity ligation; Duolink PLA with anti-GAB2 and anti-PTEN-L antibodies in fixed, permeabilised primary neurons at DIV 9 treated with 50 µM glutamate for 60 min; proximities below 40 nm.
The next assay concerns the target T1, PTEN-L:EGFP (human, UniProt P60484-2 1-576).
T1 construct: human PTEN-L (PTENα), the long translational variant of PTEN with 173 additional N-terminal residues (aa 1-173 unique, aa 174-576 shared with PTEN); gene synthesis with an ATG start codon replacing the alternative CTG start; PCR primers run from the start codon to the last codon before the spacer; A Gly-Gly-Thr-Gly-Gly spacer precedes the C-terminal EGFP; Cloned in the lentiviral transfer vector …
The assay is described as above. The following applies: partners not purified.

Regarding “GRB2-associated-binding protein 2 (from UniProt Q9Z1S8 1-665) (natural protein)”, the fold decrease of PLA interaction complexes, glutamate against PBS in assay [1] turned out to be 3.98 fold.

B1: GRB2-associated-binding protein 2 (natural protein, UniProt Q9Z1S8 1-665, looked up)
chain: MSGGGGDDVVCTGWLRKSPPEKKLRRYAWKKRWFILRSGRMSGDPDVLEYYKNEHSKKPLRIINLNLCEQVDAGLTFNKKELQDSFVFDIKTSERTFYLVAETEADMNKWVQSICQICGFNQAEESTDSLRNLSSASHGPRSSPAEFSSSQHLLRERKSSAPSHSSQPTLFTFEPPVSSHMQPTLSTSAPQEYLYLHQCISRRTENARSASFSQGTRQKSDTAVQKLAQSNGHCINGVGGQVHGFYSLPKPSRHNTEFKDSTYDLPRSLASHGHTKSSLTGSETDNEDVYTFKMPSNTLCRELGDLLVDNMDVPTTPLSAYQIPRTFTLDKNHNAMTVATPGDSAIAPPPRPPKPSQAETSQWGSIQQRPPISENSRSVAATIPRRNTLPAMDNSRLHRASSCETYEYPARGSGESASWSAEPPGKTAVGRSNSASSDDNYVPMNPGSSTLLAMERPGDNSQSVYIPMSPGPHHFDPLGYPSTALPIHRGPSRGSEIQPPPVNRNLKPDRKAKPTPLDLRNNTVIDELPFKSPVTKSWSRINHTFNSSSSQYCRPISTQSITSTDSGDSEENYVPMQNPVSASPVPSGTNSPAPKKSTGSVDYLALDFQPGSPSPHRKPSTSSVTSDEKVDYVQVDKEKTQALQNTMQEWTDVRQSSEPSKGAKL
notes: also called Gab2; GAB2; source: endogenous, mouse primary cortical neurons; in cytosolic or nuclear fractions, or in fixed cells
On to B1, for which the “fold decrease of PLA interaction complexes, glutamate against PBS” value with PTEN-L:EGFP was found to be 4.61 fold.

(Values after article PMC6395706, “Unique properties of PTEN-L contribute to neuroprotection in response to ischemic-like stress” (Scientific Reports, 2019).)
